# Test: soluble on expression in E. coli; label from the status in PepcDB or PDB records
row,Sequence,soluble on expression in E. coli
1,MDKVPQAVRDYLMEAHQLAAQWSLPNDRGDYINSKSIPIKSVAVIGGGTMGRGIAIAFCLSGFETYLVEVNNKAAEFCKNELEITYKREKAFRRLNDSKVEKLRKNLQITTDFQKLNNCDLIVEAVFEDMKLKKELFTKLDKICKPSCIFGTNTSSLDLNEMSSVLRDPTKVVGIHFFNPANLIRMVEVIYGSKTSSKAVATAFEACRSIKKLPVLVGNCPAFVFNRLLGVYLNQSQKLMYEYGYLPHQIDKIITNFGFLMGPLTVADMNGLDVMEKLKKENGWPASDFEKEVWRQKRYGRKTNKGYYKYDPNTHKKENDIEMEQLIRKFSSAASPNIQILNDQDAVNFLLYPMVNEGLLCIEEGIIHHESLIDIMFILGFGWPVATGGPMRFGWLQGIEKVASTIILWNSLEPNDRTYKVAATLQNVDRKNFAAKL,not soluble
2,MDLHSLCVDSHALRRDGMRFLHTADWQLGMTRHFLAGDAQPRYSAARRDAVAGLKALAADVGAEFVVVAGDVFEHNQLAPQIVGQSLEAMRVIGLPVYLLPGNHDPLDASSVYTSTLFRAERPDNVVVLDRAGVHEVRPGVQIVAAPWRSKAPTTDPVAEVLAGLPTDAAIRLLVAHGGVDALDPDHDKPSLIRLAALDDALTRQAIHYVALGDKHSLTQVGSSGRVWYSGAPEVTNFDDVEPDPGHVLVVDIDESDPRHPVTVDARRIGRWRFVTLHHQVDTSRDIADLDLNLDLMTDKDRTVVRLALTGSLTVTDRAALDTCLDKYARLFAWLGLWERHTDLAVIPVDAEFTDLGIGGFAAAAVDELVATARGGDDESAVDAQAALALLLRLADRGAALEHHHHHH,soluble
3,MDLTNGGVSPAATSAPLDWTTFRRVFLIDDAWRPLMEPELANPLTAHLLAEYNRRCQTEEVLPPREDVFSWTRYCTPDEVRVVIIGQNPYHHPGQAHGLAFSVRANVPPPPSLRNVLAAVKNCYPEARMSGHGCLEKWARDGVLLLNTTLTVKRGAAASHSRIGWDRFVGGVIRRLAARRPGLVFMLWGTHAQNAIRPDPRVHCVLKFSNPSPLSKVPFGTCQHFLVANRYLETRSISPIDWSV,soluble
4,MDMNEEYGLTPYETREILFYKTDNGEVRVEILLYQENLWLTQAKMAELFEVQKAAISKHLKNIFTSGELQEEAVVSKMETTAADGKRYNTSYYNLDAIIAVGYRVNSKKATMFRIWANRVLKEFIIKGYVMDDARLREPENLFGKDYFEEQLERIRDIRSSERRFYQKITDIYSQCSADYDVNSPVTKEFFATVQNKLHYAVTHHTAAEIVYGRADSTKPNMGLTTWKNAPQGRIRKSDVSIAKNYLNEEEMINLNEIVTMYLDYAERQARRGNIMYMQDWVNRLDAFLQFNEEDILHDKGKVTAAIAKAFAESEFEKFRVLQDRTYQSDFDRLVANIEENSKQTK,not soluble
5,MDNHDDKSKSDRFCDINNNMTTQFDRLSINSDASLVITSSRLAMQGADETSDWTPNKYSWFKLVTPNPVETRVVQQKAQMKGLKIHKMVHNFIPSRKQGYLGYYNFDVKSYEESEKARNLFPTDFVDAFCCQHLLGKNEQEFVFHAVNENDLKILCCIATYCKETKLDAPLDPMQHLNNLNLFYEAINNERAFIIMKDFMSDNGMKYLCRLKKDITDIRDRRNNN,not soluble
6,MDNKIMLRNRYISKIQNKLRDLTDSINFLSEIDQAILNQTAGAGPGAAGPGAAPDRSSTINLQALREKLTTLNTDDGPTRTAIRDKTAAIQTSIRDINLKLEELMKNINTSAGKLADAVSAIPTPTDDLGAAGAAGAAGAAGAAAGAGAGAA,not soluble
7,MDNSSQSKPSSSSSSHSPSPAAITPTQRTTRDSGLCSTIDIPEIQAQCIDNLNSHYLGKGTYGLVEKTRYRKTRQDDFRPAAIKYSSQLHMATLIREAKVMWDLRNHPNIIKIYGLYKSPRNGQGVVMEYMDCGSMADLLYDRTHINYTIDHVASWMFQLSSAVDFFHSNSQVHRDLKLQNMLLSDRYRTMKLCDFGTFTSMHQSMTSNRGTPITMAPEVFRCEQYNMKSDIYSIGIIMWQIIARNHPYRRDLSVPGLLYNVATANLRPQELECNPILSEFYKKCWNDNADIRPTSSECVEYFTLLKDEYPNGSVPLSDSSTNGPAETPPPHAHRPTMLGTSSGSGIGSNNRTPTASKLLNPQQPGQGHRRNRSETFVVQPDLPYPTVPGEAGASRIPKSQSEAKNFRDRAKSEQRQPHRDARPPPPFEHRRDSNDEEKHAVFMNICSNEETRPIDPDTRDEKSLEIFHQHCDNNKQYADAWVIKKEVMRAKHELIAQWPQHDHTVELLERKYYLEQEIARYRDIQDDNYFSTERM,not soluble
8,MDNSVMLDYLAVTIKGLAPDDVIEKILILPKDKFVLNEWGINKYQRHYSFSEIKVYFNKDWQSKMGVFIELRGQGCRQYEEYMENNVNNWVTLMKRISECHSNVTRLDIANDIFDDSLSVPLIYSYCKKQLCISTAKTFDYHEKSLLENGEKVGEMVTIGVRGTQQWCVYNKLLEQKLDQELPNTPLSWTRAELRCWQEKANLLAKQIKEGRPLKEIYFEVINGHYRFVSPRDKDSNRWRRKTVKWWNDYLETQEKTVLSVKRTKPTLKRSEKWTEKQVSRTLGKLYVAKAESHGQEKADSYIQHLLELGISKLTETDETDIQQYKQEQLSSAYWGIRKDDL,not soluble
9,MDNTNTGLKLFVLDTNILMHDPTAIYHFDEHDIYLPMVVLEELDSHKTGTSELARNVRQTNRMLVELMSNATHDQIVSGLPIPSYINSSNKKCSGRLFFQTDEFDQVVPSTLPGHKVDNTILATALGLQKKYYGKRQVIIISKDINLRIKAGILGIHAEDYYNDQVLDDVNLLHRGLHILDNNFWDSHAKDMGSWQESGKTFYKVSGPLVSQWNPNDCLSTEDDQFQALVKKIDGPNAVVQLIRDYTQPKHSVWGITARNREQNFSLNLLLDPDIDFVSLQGSAGTGKTLLTIAAGLTQVMDQNRYSEILMTRVTIPVGEDIGFLPGTEEEKMTPWMGALMDNLEVLHSSQVGGSFGRGATQDLLQNKIKIRSLNFMRGRTFLNRYIIIDEAQNLTSKQIKTLVTRAGPGSKIICLGDIKQIDTPYLTETTSGLTFAVDRFKSWEHSAHMTLTRGERSRLAFYAAEHL,not soluble
10,MDPLTGVPIRQEVPRLMERTFQENQAETYVLFLINLDRFKLVNDSLGEGYGDQVLQTLVRRLLWQLPNQQWIARVSGDEFIACAAIKGELPKKETLATYISSIIQQPFQVDEVQFTMTASIGAAVYPMDGKSVEMIWNSLERALRHAKARGGNCVSWFCQELKDEWIHPFRLENDLRRAVENQELEHHHHHH,soluble
11,MDQGPINRPHFFFTTAPMPCPYLEGHLERKMVTDLTGPEAERLHESLSRAGFRRSHTIAYAPVCPGCTACVPVRIRARAFVKNKSFRRIVRANAGVTAEYVPARATVEQFHLFSQYQQARHGESDMALMGFFDYRSMVEDSPISTSIAEFREAGGELVAACLIDHLSDGLSAVYSFFNTTLPQSRGLGTWMILWMVDETVRRDLDHVYLGYWIAESSKMAYKERFQPLEVFGRRGWIAFDERGRPGLEHHHHHH,not soluble
12,MDQLWANRAASAEAAITERHLKKLWGLPGTQLGVVAWPPARKYTLFGTWHYWWQAHLLDCLVDAQVRDPQPERTTRIERQLRAHRLRNNLSWVNDYYDDMAWLALAIERAGRLAGVEKPTALRKLCDQFVTAWVPEDGGGIPWRKQDQFFNAPANGPAGIFLARYDDRLRRAQQMADWIDETLIDPDTHLVFDGIKAGSLVRAQYTYCQGVVLGLEVELAVRTQDPRHAPRVRRLVAAVDKEMTTDGVIKGAGGGDGGLFNGILARYLALVATTLPGETPEDIAARDTARTIVLKSARSAWDHRQTVDGLPLFSAFWDRNAEIPTAGGKEAEFVEGAVNASSVPERDLSVQLAGWMLMEAAHSVDSVDAEDAAGDQNGAGDGEVGHDENEDEELEHHHHHH,soluble
13,MDRENILKAVKEARSLAKPRNFTQSLDLIINLKELDLSRPENRLKEQVVLPNGRGKEPKIAVIAKGDLAAQAEEMGLTVIRQDELEELGKNKKMAKKIANEHDFFIAQADMMPLVGKTLGPVLGPRGKMPQPVPANANLTPLVERLKKTVLINTRDKPLFHVLVGNEKMSDEELAENIEAILNTVSRKYEKGLYHVKSAYTKLTMGPPAQIEK,soluble
14,MDRINGLSDEIICHILSFLPTKESALTSVLSKRWRNLFALTPNLHLVDDDLEVGGCGQTLIDFVDRVLAVSSNLPIREFSIKC,soluble
